Source: patent US5512203A, “Cutinase cleaning compositions” (Genencor International, Inc., priority 1994, dated 1996)

How the values were obtained:
Format in all cases: biochemical
[1] = Effect of surfactants on hydrolase activity of cutinase; conditions: for Compatibility of surfactant with the cutinase: at the concentrations tested
Experimental: This example measures the effect of surfactants (detergents) on the hydrolytic activity of cutinase. Specifically, in this example, an aqueous solution was prepared so as to contain 120 nanomoles per liter of cutinase (isolated in a substantially pure form from P. mendocina, ATCC 53552, described in U.S. Ser. No. 932,959 filed Nov. 19, 1986 and incorporated herein by reference); and 0.1 moles/liter of Tris Tris(hydroxymethyl)aminomethane! buffer maintained at pH 8.0 and 25° C. In some cases, surfactant sodium dodecyl sulfate (SDS) and/or Triton X-100™ (octoxynol), available from Rohn & Haas, Philadelphia, Pa.! was then added in the amount specified in Table 4 below. In this example, the enzymatic activity of the cutinase was measured in these solutions using the amount of p-nitrophenol generated from the p-nitrophenylbutyrate substrate as measured by following the absorbance of p-nitrophenol at 410 nm. The enzymatic activity of the cutinase under the above conditions and in the absence of surfactant is arbitrarily assigned a value of 100 percent and enzymatic activity of the other test solutions are reported as a percentage of the standard.

[2] = Stability of cutinase against proteases, hydrolysis of p-nitrophenyl butyrate; conditions: for Cutinase activity after time: pH 10, 37° C.
Experimental: A. In part A of this example, the cutinase employed was that cutinase isolated in a substantially pure form from P. mendocina, ATCC 53552, described in U.S. Ser. No. 932,959 filed Nov. 19, 1986 and incorporated herein by reference and the protease employed was either Maxacal™ (a substilisin protease available from Gist-Brocade, N.V., Delft, Holland) or Esperase™ (a protease available from Novo Industries, Copenhagen, Denmark).
In this example aqueous test solutions containing 42 μg/ml of cutinase and either 35 μg/ml (Maxacal™) or 64 μg/ml (Esperase™) of protease were prepared. The solutions were buffered to pH 10 with 0.1M sodium phosphate. The solutions were incubated at 37° C. and the enzymatic activity of cutinase was periodically monitored by the hydrolysis of a model cutinase substrate p-nitrophenyl butyrate as measured by the absorbance change at 410 nm in 100 mM Tris buffer containing 0.1% Triton X-100 at pH 8. This value correlated against a standard, i.e., an aqueous solution containing cutinase but no protease. Diminishment in the enzymatic activity of the cutinase in the test solutions as compared to the standard is attributed to degradation of the cutinase by the protease.

[3] = Cutinase activity after 28 minutes with proteases, pH stat hydrolysis of trioctanoin; conditions: 2 μg/ml cutinase, pH 10, 37° C.
Description: B. In part B of this example, the cutinase employed was the same as in part A above whereas the protease employed was either Alcalase™ (an alkaline protease available from Novo Industries, Copenhagen, Denmark), a mixture of Alcalase™ and Savinase™ (an alkaline protease available from Novo Industries, Copenhagen, Denmark), or a mixture of Savinase™ and Esperase™ (a protease available from Novo Industries, Copenhagen, Denmark).
In this example, aqueous test solutions containing cutinase contained 2 μg/ml of cutinase and the amount of protease specified in Table 2 below. The solutions were incubated at 37° C. for 28 minutes at pH 10 and the enzymatic activity of cutinase was periodically measured in a pH stat by the hydrolysis of trioctanoin in a 0.5 percent trioctanoin and a 0.05 percent sodium dodecyl sulfate emulsion. The measured value was correlated against a standard, i.e., an aqueous solution containing cutinase but no protease. Diminishment in the enzymatic activity of the cutinase in the test solutions as compared to the standard is attributed to degradation of the cutinase by the protease.

[4] = Stability of cutinase to oxidants (hydrogen peroxide); conditions: for Percent Cutinase Activity: pH 8.4, 25° C., two hours
Experimental: Specifically, in this example, an aqueous solution of 0.5 mg/ml of cutinase (isolated in a substantially pure form from P. mendocina, ATCC 53552, described in U.S. Ser. No. 932,959 filed Nov. 19, 1986 and incorporated herein by reference) containing 0.1M sodium phosphate buffer was incubated in varying amounts of hydrogen peroxide wherein the aqueous solution was maintained at pH 8.4 and at 25° C. for two hours. The enzymatic activity of the cutinase under the above conditions and in the absence of hydrogen peroxide is arbitrarily assigned a value of 100% and enzymatic activity of the other test solutions are reported as a percentage of the standard.

[5] = Cutinase activity against pH (FIG. 1)
[6] = Removal of cutin-like stains from an insoluble support matrix, 3H-triolein hydrolysis; conditions: polyester swatches, 1 percent BSA
Experimental: The substrate was prepared by diluting 1 mCi of ^3 H-Triolein (0.5 mCi/ml, […]) into 17 ml isopropanol containing 421 mg of non-^3 H-Triolein. The final concentration was about 23-24 mg Triolein/ml. This was divided into 1 ml aliquots and stored.
Polyester cloth swatches cut into approximately 1/2 inch×1/2 inch squares were laid onto a glass plate. 3 μl of the above mixture was pipetted onto each swatch and allowed to air dry.
A solution comprising 1 percent fatty acid free bovine serum albumin (BSA), and 100 mM of a suitable buffer, preferably Tris (pH range 6 to 9) or glycine (pH range 8 to 11) was allowed to equilibrate to a fixed temperature (preferably 32° C.) in a shaking water bath. An aliquot of cutinase (0.25 to 1.5 μg/ml) was then added to 2.8 ml of the BSA solution, followed by the insertion of four of the cloth swatches, taking care to keep the swatches as separate as possible. The cutinase added was isolated from Fusarium solani pisi, Colletotrichum capsici, Pseudomonas mendocina or Pestalotia subcuticularia. The entire mixture was then allowed to shake in the constant temperature bath at 150 rpm for 15 minutes.
An aliquot of the liquor, preferably 20% of the entire volume was pipetted into a scintillation vial containing 10 ml of Ecolume™ scintillation fluid. After chilling, the scintillation vials were counted. […]

[7] = pH stability of bacterial cutinase, half-life at 50° C., hydrolysis of trioctanoin in polyvinyl alcohol emulsions
Experimental: In this example the half-life of the same cutinase used in Example 1 above was measured at 50° C. at various pHs. Specifically, cutinase was introduced into a 0.1M sodium phosphate buffer at the pH specified below and the activity was measured by hydrolysis of trioctanoin in polyvinyl alcohol emulsions. The time required for the activity to diminish to 1/2 of its initial value is taken as the half-life at that particular pH.

octoxynol [Triton X-100, reference compound]
Compatibility of surfactant with the cutinase [1]: compatible with the cutinase

CCCCCCCCCCCCOS(=O)(=O)[O-].[Na+] [sodium dodecyl sulfate, reference compound]
Compatibility of surfactant with the cutinase [1]: is not

B1: cutinase: cutinase isolated in a substantially pure form from Pseudomonas mendocina ATCC 53552, amino acid sequence of SEQ ID NO:1 (protein)
chain: APLPDTPGAPFPAVANFDRSGPYTTSSQSEGPSCRIYRPRNLGQGGVRHPVILWGNGTGAGPSTYAGLLSHWASHGFVVAAAETSNAGTGREMLACLDYLVRENDTPYGTYSGKLNTGRVGTSGHSQGGGGSIMAGQDTRVRTTAPIQPYTLGLGHDSASQRRQQGPMFLMSGGGDTIAFPYLNAQPVYRRANVPVFWGERRYVSHFEPVGSGGAYRGPSTAWFRFQLMDDQDARATFYGAQCSLCTSLLWSVERRGL
Cutinase activity after time ([2]; Esperase 64 μg/ml, 0 min): 1.73 absorbance change at 410 nm
Cutinase activity after time ([2]; Esperase 64 μg/ml, 5 min): 1.64 absorbance change at 410 nm
Cutinase activity after time ([2]; Esperase 64 μg/ml, 10 min): 1.59 absorbance change at 410 nm
Cutinase activity after time ([2]; Esperase 64 μg/ml, 15 min): 1.51 absorbance change at 410 nm
Cutinase activity after time ([2]; Esperase 64 μg/ml, 840 min): 0.456 absorbance change at 410 nm
Cutinase activity after time ([2]; Maxacal 35 μg/ml, 0 min): 1.68 absorbance change at 410 nm
Cutinase activity after time ([2]; Maxacal 35 μg/ml, 5 min): 1.58 absorbance change at 410 nm
Cutinase activity after time ([2]; Maxacal 35 μg/ml, 10 min): 1.72 absorbance change at 410 nm
Cutinase activity after time ([2]; Maxacal 35 μg/ml, 15 min): 1.66 absorbance change at 410 nm
Cutinase activity after time ([2]; Maxacal 35 μg/ml, 840 min): 0.134 absorbance change at 410 nm
Cutinase activity after time ([2]; Standard, no protease, 0 min, 42 μg/ml cutinase): 1.57 absorbance change at 410 nm
Cutinase activity after time ([2]; Standard, no protease, 5 min): 1.60 absorbance change at 410 nm
Cutinase activity after time ([2]; Standard, no protease, 10 min): 1.47 absorbance change at 410 nm
Cutinase activity after time ([2]; Standard, no protease, 15 min): 1.63 absorbance change at 410 nm
Cutinase activity after time ([2]; Standard, no protease, 840 min): 1.61 absorbance change at 410 nm
Stability in aqueous solution in the presence of a protease ([2]; results from A and B of Example 1, periods of time commonly encountered in cleaning use): stable
Cutinase activity in the aqueous solution after 28 minutes ([3]; Alcalase 34.7 μg/ml): 420.3 units of octanoic acid released
Cutinase activity in the aqueous solution after 28 minutes ([3]; Alcalase/Savinase 17.7/20.0 μg/ml): 428.0 units of octanoic acid released
Cutinase activity in the aqueous solution after 28 minutes ([3]; Esperase/Savinase 15.0/13.0 μg/ml): 411.0 units of octanoic acid released
Cutinase activity in the aqueous solution after 28 minutes ([3]; no protease): 417.8 units of octanoic acid released
Percent Activity ([1]; Triton X-100 0, SDS 0 weight percent (standard assigned 100), pH 8.0, 25° C.): 100%
Percent Activity ([1]; Triton X-100 0, SDS 0.05 weight percent): 30%
Percent Activity ([1]; Triton X-100 0, SDS 0.1 weight percent): 23%
Percent Activity ([1]; Triton X-100 0, SDS 0.2 weight percent): 14%
Percent Activity ([1]; Triton X-100 0, SDS 0.4 weight percent): 6%
Percent Activity ([1]; Triton X-100 0.05, SDS 0.05 weight percent): 132%
Percent Activity ([1]; Triton X-100 0.1, SDS 0.1 weight percent): 130%
Percent Activity ([1]; Triton X-100 0.2, SDS 0 weight percent): 78%
Percent Activity ([1]; Triton X-100 0.2, SDS 0.05 weight percent): 125%
Percent Activity ([1]; Triton X-100 0.2, SDS 0.1 weight percent): 138%
Percent Activity ([1]; Triton X-100 0.2, SDS 0.2 weight percent): 98%
Percent Activity ([1]; Triton X-100 0.4, SDS 0 weight percent): 60%
Percent Activity ([1]; Triton X-100 0.4, SDS 0.4 weight percent): 78%
Stability of cutinase activity in the presence of an oxidant ([4]; hydrogen peroxide): sufficiently stable
Percent Cutinase Activity ([4]; hydrogen peroxide 0 ppm (standard assigned 100%)): 100%
Percent Cutinase Activity ([4]; hydrogen peroxide 100 ppm): 86%
Percent Cutinase Activity ([4]; hydrogen peroxide 200 ppm): 86%
Percent Cutinase Activity ([4]; hydrogen peroxide 500 ppm): 91%
Percent Cutinase Activity ([4]; hydrogen peroxide 1000 ppm): 95%
pH at which cutinase activity reaches a maximum ([5]; FIG. 1): 7
Share of maximum activity maintained ([5]; up to pH 11, FIG. 1): ≥ 80%
Sp. activity triolein hydrolysis [6]: 157,045 cnts./10 min./μg enzyme
Triolein hydrolysis ([6]; cutinase 0.25 to 1.5 μg/ml): 9,250 cnts./10 min.
Stability of cutinase activity at pH ([7]; neutral and alkaline pHs, 50° C.): sufficiently stable
Half-life at 50° C. ([7]; pH 7, 0.1M sodium phosphate buffer): 30 h
Half-life at 50° C. ([7]; pH 8, 0.1M sodium phosphate buffer): 25 h
Half-life at 50° C. ([7]; pH 9, 0.1M sodium phosphate buffer): 12 h
Half-life at 50° C. ([7]; pH 10, 0.1M sodium phosphate buffer): 0.3 h
